Consider nine proteins from FireProtDB.

As a reminder, the Tm is the temperature at the midpoint of the melting transition.

The conditions of this series: whole UniProt chain shown; for Tm / unfolding enthalpy (calorimetric): Thermal.
The mark [1] stands for this setting: Dictyostelium discoideum, pH 7.5, DSC, HEPES-NaOH 50 mM, reversible: no.
[2] abbreviates: Dictyostelium discoideum, pH 7.5, DSC, HEPES-NaOH 50 mM, transition: 3, reversible: no.
Where [3] appears, read: Dictyostelium discoideum, pH 7.5, DSC, HEPES-NaOH 50 mM, transition: 3, reversible: yes.
[4] abbreviates: Dictyostelium discoideum, pH 8, 25 °C, Urea, Absorbance, Tris-acetate 83 mM, reversible: yes.
Setting [5] is: Bos taurus, pH 7.4, 23 °C, GdnHCl, CD, Sodium phosphate 200 mM, reversible: yes.
The mark [6] stands for this setting: Enterobacteria phage 434, pH 6, 20 °C, Urea, Fluorescence, KH2PO4 25 mM, KCl 100 mM, reversible: yes(>95%).
Where [7] appears, read: Enterobacteria phage 434, pH 6, 20 °C, Urea, far-UV CD, KH2PO4 25 mM, KCl 100 mM, reversible: yes(>95%).
Setting [8] is: Enterobacteria phage 434, pH 7, DSC, K-phosphate 20 mM.
Where [9] appears, read: Cavia porcellus, pH 7.4, 25 °C, Urea, CD, NaPi 0.01 M, NaCl 0.15 M, reversible: Yes.
[10] abbreviates: Cavia porcellus, pH 7.4, DSC, NaPi 0.01 M, NaCl 0.15 M, reversible: No.
The mark [11] stands for this setting: Canis lupus familiaris, pH 4.5, 25 °C, GdnHCl, CD, acetate 50 mM, CaCl2 2 mM.
The mark [12] stands for this setting: Canis lupus familiaris, pH 4.5, DSC, Sodium acetate/glycine-HCl 50 mM/50 mM/, transition: 3, reversible: yes.
Where [13] appears, read: Drosophila melanogaster, pH 6.5, 25 °C, Urea, Fluorescence, sodium phosphate 20 mM.
Where [14] appears, read: Enterobacteria phage T4, pH 8, DSC, Tris-HCl 10 mM, NaCl 200 mM, reversible: yes.

Several values for one entry are separate records, joined by “and”; a condition that tells them apart may be missing. Equal values may be shown once.

B1: Beta-crystallin B2 wild type, P02522 (protein)
chain: MASDHQTQAGKPQPLNPKIIIFEQENFQGHSHELNGPCPNLKETGVEKAGSVLVQAGPWVGYEQANCKGEQFVFEKGEYPRWDSWTSSRRTDSLSSLRPIKVDSQEHKITLYENPNFTGKKMEVIDDDVPSFHAHGYQEKVSSVRVQSGTWVGYQYPGYRGLQYLLEKGDYKDSGDFGAPQPQVQSVRRIRDMQWHQRGAFHPSS
B1: the midpoint of thermal melting (Tm) (Bos taurus, pH 7.2, fluorescence, sodium phospahte 20 mM, NaCl, transition: 2) worked out at 56.8 °C.

B2: Nucleoside diphosphate kinase, mitochondrial wild type, P34093 (protein)
chain: MFSRFARAFPKILASGASQRTFATVQKAFANPTSKKLIVGSSLLIGSAFATTSFVACENKSVPLVGLPGTNQERSFIAIKVSSTQRRLIGEIIARFEKKGFKLVGIKILVPTPEHAAKHYEDLNKKPFFNGLVKFFSSGAVVAMVFEGKDVVRTGRVLIGATDPSQSAPGTIRFDLCIETGRNIIHGSDSNESAAHEIALWFKEDEIANWVSTNPVYEKM
Consider B2, for which, under setting [1], the Tm turned out to be 61.8 °C and the “unfolding enthalpy (calorimetric)” value was found to be 785 kcal/mol. Also, under setting [2], the Tm is 55.7 °C and the “unfolding enthalpy (calorimetric)” value was 319 kcal/mol. Also, under setting [3], the Tm is 37.5 °C and the “unfolding enthalpy (calorimetric)” value was 97 kcal/mol. Also, under setting [4], the denaturant m value is 1.71 kcal/mol/M and the unfolding free energy worked out at 5.42 kcal/mol.

B3: Thiosulfate sulfurtransferase wild type, P00586 (protein)
chain: MVHQVLYRALVSTKWLAESVRAGKVGPGLRVLDASWYSPGTREARKEYLERHVPGASFFDIEECRDKASPYEVMLPSEAGFADYVGSLGISNDTHVVVYDGDDLGSFYAPRVWWMFRVFGHRTVSVLNGGFRNWLKEGHPVTSEPSRPEPAIFKATLNRSLLKTYEQVLENLESKRFQLVDSRAQGRYLGTQPEPDAVGLDSGHIRGSVNMPFMNFLTEDGFEKSPEELRAMFEAKKVDLTKPLIATCRKGVTACHIALAAYLCGKPDVAIYDGSWFEWFHRAPPETWVSQGKGGKA
As to B3, under setting [5], the denaturant m value amounted to 2.34 kcal/mol/M and the unfolding free energy was 3.39 kcal/mol.

B4: Regulatory protein cro wild type, P03036 (protein)
chain: MQTLSERLKKRRIALKMTQTELATKAGVKQQSIQLIEAGVTKRPRFLFEIAMALNCDPVWLQYGTKRGKAA
As to B4, under setting [6], the denaturant m value is 1.05 kcal/mol/M, the “denaturant midpoint (higher = more stable)” value (from here on “denaturant midpoint”) was found to be 3.35 M and the unfolding free energy was 3.5 kcal/mol. Under setting [7], the denaturant m value is 1.02 kcal/mol/M, the “denaturant midpoint” value was determined as 3.5 M and the unfolding free energy is 3.6 kcal/mol. For the same protein, under setting [8], the Tm stood at 46.4 °C and the “unfolding enthalpy (calorimetric)” value is 53.8 kcal/mol.

B5: wild type, Q8VD40 (protein)
chain: MDGDGDPESVGQPEEVSPEEACAEEACAEGDRPGEEEEEEQEELEEAAYLAELPEALLLRVLAQLPAAELVQACRLVCLRWKELVDGAPLWLLKCQQEGLVPEGCGEEEERDHWQRFYFLSKRRRNLLRNPCGEEDLEGWCDVEHGGDGWRVEEIPGDSGVEFPQDDSVRKYFASSFEWCRKAQVVDLQAEGYWEELLDTTQPAIVAKDWYSGRSDAGCLYELSVKLLSEHEDVLAEFNTGQVPVSPDSEEGGWTEISHTFTDYGPGVRFVRFEHGGQDAVYWKGWFGARVTNSSVWVEP
Consider B5, for which, under setting [9], the denaturant m value was determined as 0.79 kcal/mol/M and the unfolding free energy stood at 2.64 kcal/mol. Under setting [10], the Tm was determined as 57 °C and the “unfolding enthalpy (calorimetric)” value stood at 141 kcal/mol.

B6: Lysozyme C, milk isozyme wild type, P81708 (protein)
chain: KIFSKCELARKLKSMGMDGFHGYSLANWVCMAEYESNFNTQAFNGRNSNGSSDYGIFQLNSKWWCKSNSHSSANACNIMCSKFLDDNIDDDIACAKRVVKDPNGMSAWVAWVKHCKGKDLSKYLASCNL
B6: under setting [11], the denaturant m value was 2.43 kcal/mol/M and 1 kcal/mol/M; the unfolding free energy is 2.84 kcal/mol and 5.27 kcal/mol. Also, where the note is “Canis lupus familiaris, pH 4.5, 25 °C, GdnHCl, CD, acetate 50 mM”, the denaturant m value was 2.48 kcal/mol/M and 1 kcal/mol/M. Moreover, under setting [12], the Tm turned out to be 39 °C and the “unfolding enthalpy (calorimetric)” value was found to be 44.6 kcal/mol.

B7: General odorant-binding protein lush wild type, O02372 (protein)
chain: MKHWKRRSSAVFAIVLQVLVLLLPDPAVAMTMEQFLTSLDMIRSGCAPKFKLKTEDLDRLRVGDFNFPPSQDLMCYTKCVSLMAGTVNKKGEFNAPKALAQLPHLVPPEMMEMSRKSVEACRDTHKQFKESCERVYQTAKCFSENADGQFMWP
As for B7, under setting [13], the denaturant m value is 1.24 kcal/mol/M and 1.76 kcal/mol/M and 1.77 kcal/mol/M; the “denaturant midpoint” value is 2.39 M and 2.98 M and 4.11 M; the unfolding free energy was 3.02 kcal/mol and 5.26 kcal/mol and 7.35 kcal/mol.

B8: Spermadhesin-1 wild type, P29392 (protein)
chain: MKLSSVIPWALLLSTATVDSMDWLPRNTNCGGILKEESGVIATYYGPKTNCVWTIQMPPEYHVRVSIQYLQLNCNKESLEIIDGLPGSPVLGKICEGSLMDYRSSGSIMTVKYIREPEHPASFYEVLYFQDPQA
With B8, the Tm (Bos taurus, pH 7, DSC, sodium phosphate 10 mM, reversible: no) was determined as 78.6 °C.

B9: Single-stranded DNA-binding protein wild type, P03695 (protein)
chain: MFKRKSTAELAAQMAKLNGNKGFSSEDKGEWKLKLDNAGNGQAVIRFLPSKNDEQAPFAILVNHGFKKNGKWYIETCSSTHGDYDSCPVCQYISKNDLYNTDNKEYSLVKRKTSYWANILVVKDPAAPENEGKVFKYRFGKKIWDKINAMIAVDVEMGETPVDVTCPWEGANFVLKVKQVSGFSNYDESKFLNQSAIPNIDDESFQKELFEQMVDLSEMTSKDKFKSFEELNTKFGQVMGTAVMGGAAATAAKKADKVADDLDAFNVDDFNTKTEDDFMSSSSGSSSSADDTDLDDLLNDL
For the protein B9, under setting [14], the Tm amounted to 49 °C and the “unfolding enthalpy (calorimetric)” value stood at 84 kcal/mol.
